From PMC9505737

What was measured:
[1] = tested on: Immunoglobulin E (IgE), human myeloma (human); experiment: NECEEM (CE-LIF); details: 25 nM DNA and 25 nM IgE, 10 mM Tris-HCl pH 9.0, no added salt in CE-LIF/NECEEM, temperature not stated
[2] = tested on: Immunoglobulin E (IgE), human myeloma (human); experiment: cited; details: 10 mM Tris-HCl pH 9.0, no added salt in CE-LIF/NECEEM; temperature not stated; cited from earlier work

GACTACCCGGGTATCTAATCCGACCATTTTTCGTCTCCTTTGTACGAGCAGTGTGCTCGACCTGCCGCCCGTAGG [S2]
Kd ([1]; alternative from both peaks, not adopted): 34.6 nM
Kd ([1]; alternative from sharp peak, not adopted): 28.4 nM
Kd ([1]; from broad peak (value adopted by authors)): 1.55 nM

GACTACCCGGGTATCTAATCCGCGTATGGTCATGGATGTGCATACACCCCGCCTATCAGAACTGCTGCCGCCCGTAGG [S1]
Kd [1]: 0.83 nM

GACTACCCGGGTATCTAATCCTGAAACATAGCATATTTACTTATGTCGCCTTGCCGGTTCTGCTGCCGCCCGTAGG [FITC-IgE-Apt (published IgE aptamer)]
Kd [2]: 23 nM
